Experimental data reported in IntAct's records for PubMed 22587461.

B1: Translocated intimin receptor Tir (Escherichia coli O127:H6 (strain E2348/69 / EPEC)), B7UM99 (parent)
chain: MPIGNLGNNVNGNHLIPPAPPLPSQTDGAARGGTGHLISSTGALGSRSLFSPLRNSMADSVDSRDIPGLPTNPSRLAAATSETCLLGGFEVLHDKGPLDILNTQIGPSAFRVEVQADGTHAAIGEKNGLEVSVTLSPQEWSSLQSIDTEGKNRFVFTGGRGGSGHPMVTVASDIAEARTKILAKLDPDNHGGRQPKDVDTRSVGVGSASGIDDGVVSETHTSTTNSSVRSDPKFWVSVGAIAAGLAGLAATGIAQALALTPEPDDPTTTDPDQAANAAESATKDQLTQEAFKNPENQKVNIDANGNAIPSGELKDDIVEQIAQQAKEAGEVARQQAVESNAQAQQRYEDQHARRQEELQLSSGIGYGLSSALIVAGGIGAGVTTALHRRNQPAEQTTTTTTHTVVQQQTGGNTPAQGGTDATRAEDASLNRRDSQGSVASTHWSDSSSEVVNPYAEVGGARNSLSAHQPEEHIYDEVAADPGYSVIQNFSGSGPVTGRLIGTPGQGIQSTYALLANSGGLRLGMGGLTSGGESAVSSVNAAPTPGPVRFV

Variants of: B1
Settings: with anxa2_human ANXA2, P07355
Sequence of anxa2_human ANXA2, P07355 (P07355 whole entry): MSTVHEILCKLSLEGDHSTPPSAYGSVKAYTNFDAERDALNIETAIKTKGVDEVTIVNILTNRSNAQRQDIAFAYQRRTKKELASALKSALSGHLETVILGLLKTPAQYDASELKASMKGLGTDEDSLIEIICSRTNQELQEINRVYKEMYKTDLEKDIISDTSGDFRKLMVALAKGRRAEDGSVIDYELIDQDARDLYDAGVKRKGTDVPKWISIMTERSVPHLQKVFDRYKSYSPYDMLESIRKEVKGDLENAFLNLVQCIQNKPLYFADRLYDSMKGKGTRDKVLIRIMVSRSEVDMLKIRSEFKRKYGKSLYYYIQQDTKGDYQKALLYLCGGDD

Variant	effect of a mutation on the interaction
Y474S	with no effect
